± gives the uncertainty stated by the source.
Test: amyloid nucleation score (Sup35N fusion, yeast selection) (log enrichment); library NNK3; higher = more nucleation; inactive = no reads after selection
In short: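 Sup35N was fused to peptides of 20 random codons and expressed in psi-negative yeast, which were induced with 100 μM copper sulfate for 24 hours and then grown on medium lacking adenine and uracil for 7 days at 30°C. Plasmid inserts from input and output were sequenced on Illumina. The nucleation score is the DiMSum log enrichment of output over input reads, centred on the mode score of non-aggregating sequences. Sequences with under 100 input reads were left out, and random libraries had three technical output replicates.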

Substance | amyloid nucleation score
RSVQSVFNTIGCQTYVSPVW | inactive
RSWIGTKGPL | inactive
RSYGR | inactive
RTFVNGSAEYANASHWEYPN | inactive
RTFWNSYWTGMVLRADWIMR | inactive
RTLLGEEWLCSVEMEVVGGQ | inactive
RTLSNFSGKVVLLI | inactive
RTRFFSQFSSL | inactive
RTSVYAALSWGEAVLREVFE | inactive
RTVKNSRLGTMIVY | inactive
RTWDYVLLGLLLLDYYRILA | inactive
RTWIRAYVSMQFRMCQDTDV | inactive
RTWSAKGYDNIRDVGLNSES | inactive
RTYDVCQTRVCKRAKWEGDT | inactive
RTYMVII | inactive
RVCCVGYLSNLLTMKGTGID | 1.81 ± 0.059
RVFGCKKGGSRLW | inactive
RVHFVYIRWFYVRRDGWFSG | inactive
RVIKVGHMFKWSRAVGGGKT | -0.514 ± 1.7
RVIMKIIVTFTA | 0.832 ± 0.23
RVIRHPAI | -0.461 ± 0.96
RVKASSFQISMMTDALKFWC | inactive
RVKRYSMELGIFLDLRVT | inactive

Substance | amyloid nucleation score
RVLGKRGGRKH | inactive
RVRIKTWYRMMGYMLCWCEL | inactive
RVRVYYGQDWYYKMLLARTI | -0.379 ± 0.84
RVTVPDVDCGKASWSPGKVC | inactive
RVYKSV | inactive
RWCMVIDSTNWCSCDRKHGA | 1.49 ± 0.13
RWKMTCFSSYNG | inactive
RWSRGMVSNCRENATWYDAA | inactive
RWTNNRSEIGAPYGWPTAS | inactive
RYDLSVSIATMVNVYFLLRG | inactive
RYDTNSRVRIIVSNF | inactive
RYHYLSSLSMNVNTGELWMD | inactive
RYKAVRRKYPGCRLGWMRPL | inactive
RYKEFVGNSIRIPDTCLSCC | inactive
RYKGFINVLC | inactive
RYLLIPAVGLK | inactive
RYLPRTSFPTIL | inactive
RYSYLGVCIKMSRKVKCVVT | 0.086 ± 0.66
RYTMAVWRLMSCNSVKSVAL | inactive
RYTWTTDYNVM | inactive
RYVLR | inactive
RYVRCNRMWIIDLDEHARGK | inactive
RYYNYVSHIPAHRAVTLSAT | inactive

Substance | amyloid nucleation score
RYYSDNDYAMQLLLEHTALY | inactive
SAGWMSTKVSVQLTNYPGLA | 1.33 ± 0.16
SAIFDGEQERSRDMLL | inactive
SALPE | inactive
SASRKNNQDVCGNCAVVGEF | inactive
SAVRHRLWVVGLASTRLYEC | -0.24 ± 1.1
SAVSTRW | inactive
SAWVIIIMLARYVAIS | inactive
SAYLELLLRSFAVICNLSLT | 2.31 ± 0.061
SAYSSGLRSKAYLYTASCTP | inactive
SAYSVHLSSVHFELVVET | inactive
SAYYCLCMLMGHHWGRNELY | 0.277 ± 0.57
SCAYGLGCMLMVKHN | inactive
SCDLFSC | inactive
SCECSSNMGEAFRKLVGTSA | inactive
SCFGECCI | inactive
SCFQQGNFWCSVFFNVGGQL | 2.64 ± 0.059
SCFSSYCRYNLRLSWRQNFV | -0.474 ± 1
SCGEYWPLLSFMNCWAP | inactive
SCGLGLLAVVEKCVVTHRFF | inactive
SCGLLWCD | -0.43 ± 1.2
SCGTCKTSFIKR | inactive
SCIRNSLRLNSFSVFFLAFH | inactive

Substance | amyloid nucleation score
SCKFITFRGGQVQLVNDEGM | inactive
SCLFRILMQLSTTMNSSVFK | inactive
SCLRGNTAKFFSKVSRVCDK | 0.133 ± 0.98
SCRLSISFTGAGNVRCAKMM | inactive
SCSWHFIFCCNGLHMSVKKR | 1.66 ± 0.084
SCYDVFSFYPSPFCLTNSVA | inactive
SCYRVNLLGVYWRVMVDVLV | inactive
SDCCYRTYVEIQKWSLVF | inactive
SDCSIHKSGYVTDTACDVFD | inactive
SDDRIT | inactive
SDGHFLCV | inactive
SDITSHLRHSNASNGSWNWL | inactive
SEAMFSIVLKECNGGACR | inactive
SEARCA | inactive
SEASQRLLYTMVWTAHTQVM | inactive
SEFCSNFNQFGC | inactive
SELHRNRPTKLGFCRYESQV | inactive
SENICLYT | inactive
SETCWVIIYWYIGVKMFSRF | inactive
SEWKNTRNTHVLWYTSDSAT | inactive
SFERSSSSST | inactive
SFFLVSWLGALTVVIPVQ | inactive
SFFRNRGGEDFFISWWFENN | inactive

Substance | amyloid nucleation score
SFFVT | inactive
SFGILVYIRTAMPCTNIANY | inactive
SFGLWNLRTYTAVIASSWEL | inactive
SFGYLSAPRFIVGKVSHLGC | inactive
SFHASGQSSLYKKGDLSTCV | inactive
SFICGINNELVK | inactive
SFIKRVRDSMSRM | inactive
SFKSTSYIITFNWKIVAVWK | inactive
SFLARVFT | inactive
SFLPSNSFFKYQCVMWC | inactive
SFLSYCC | inactive
SFLYYRFVLVGIFLRVAGRF | inactive
SFNMDYHMWIEQGSRWVFTT | inactive
SFNNININIVVFNVAPFSVH | 2.51 ± 0.082
SFNSVDTRLWTVPRWERMVN | inactive
SFPASFSYRNGFVWLNFWVV | inactive
SFPFDLFGNIVW | inactive
SFRGTSARYFMLVGVLGIFV | -0.2 ± 1.2
SFRSAVRCTS | inactive
SFRSPMDIVLLFVMCSVLAR | inactive
SFTNFFNGSVGICFRCTLMC | 2.28 ± 0.052
SFVQEMGDPPYHKQSQQLRS | inactive
SFYMPTQKLMLFIVVKVKAT | inactive

Substance | amyloid nucleation score
SGDNMPAWVDHMSCHKRWSG | -0.474 ± 1.1
SGEYSQRKGSCKGHNGSSRS | inactive
SGGLRLLGKSLLWTAVCTNT | inactive
SGGLSSLILSCFHIFIIKTY | inactive
SGGYDQSQALNRLVGWRVYC | -0.301 ± 1
SGIQVRGQTSIVLLNF | 2.41 ± 0.052
SGNHLSWYGTIE | 1.26 ± 0.086
SGPSGSRCGDITLDTPPVLL | inactive
SGRKR | inactive
SGSGFQLLDGLTTRFSVVTF | inactive
SGSNILMEWNCYRARLCRGS | inactive
SGSWHKH | inactive
SGTNNIVLLGHFVDFLEGVL | inactive
SGVCYFHARTRKSSSLRELV | 1.2 ± 0.12
SGVLLFGVSRMHQR | 0.203 ± 0.28
SGVWFVGRVCELHSWFINLS | inactive
SGWTPYLCSSSYELFREQRK | -0.084 ± 0.27
SHAEVCQLSTSGPL | inactive
SHCYTRVLCTLVVFT | inactive
SHFAEQGLSCSLSYSFSTIL | inactive
SHLFREIDITWSCSLVISCN | inactive
SHQFYMSARTNW | 0.701 ± 0.24
SHVHLDSSRKRHIDLTNALR | inactive

Substance | amyloid nucleation score
SHYRDK | inactive
SIDDVDFSGTAKMSSSQRCT | inactive
SIFFIKTYESFDSSLFKSSS | inactive
SIFFNVVLFWGVWELTQGNR | 0.803 ± 0.27
SIIGASLLNYF | inactive
SIIIIISCFGVQNVWFAEMM | 0.405 ± 0.3
SILDCLLKMGFNTILHACWN | inactive
SINGRDSQG | inactive
SIPLGFGMLSDDKSI | inactive
SIPNTTFIFSLL | 1.19 ± 0.08
SIPVSCGPLKKDVVREIRVK | inactive
SIQRICMYLKGESCTRVYHS | inactive
SIRLGNNSWPVATSVKWHSV | inactive
SIRVSVMFNIRKKVFDLQRF | inactive
SISRLVISF | inactive
SITFGFESFDVVLGNM | inactive
SIVSRLLDSIPMMIMSFYFG | inactive
SIYCTLRVVGT | inactive
SIYDSVFKMFCVWIVTSVLF | inactive
SKCGLLNSSGTYWNIG | 0.934 ± 0.15
SKESCRCLSWCGPEPRSCIA | inactive
